Measurements reported in article PMC4024478 (Protein expression and purification, 2014).

Tests used:
Experiment in all cases: pull-down
[1] = molecular target: PDZ3 Domain-HaloTag fusion protein (PSD-95 PDZ3) on HaloLink resin (Mus musculus, UniProt Q62108 302-402)
[2] = molecular target: MBP-GST fusion protein containing an internal PDZ2 Domain Tag (Mus musculus, UniProt Q62108 155-249)
[3] = molecular target: PDZ2 Domain-HaloTag fusion protein (PSD-95 PDZ2) on HaloLink resin (Mus musculus, UniProt Q62108 155-249)
Chain of PDZ2 Domain-HaloTag fusion protein (PSD-95 PDZ2) on HaloLink resin (Q62108 155-249): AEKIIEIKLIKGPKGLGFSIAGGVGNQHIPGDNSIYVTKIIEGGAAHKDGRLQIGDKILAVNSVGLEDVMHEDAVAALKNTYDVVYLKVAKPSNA

[4] = molecular target: PDZ2 domain of PSD-95 (Mus musculus, UniProt Q62108 155-249)
Chain of PDZ2 domain of PSD-95 (Q62108 155-249): as above

[5] = molecular target: MBP fusion protein containing a C-terminal PDZ2 Tag (Mus musculus, UniProt Q62108 155-249)
Chain of MBP fusion protein containing a C-terminal PDZ2 Tag (Q62108 155-249): as above

[6] = molecular target: MBP fusion protein containing an N-terminal PDZ2 Tag (Mus musculus, UniProt Q62108 155-249)
Chain of MBP fusion protein containing an N-terminal PDZ2 Tag (Q62108 155-249): as above

[7] = molecular target: HaloTag-PDZ1+PDZ2 fusion protein (PSD-95 PDZ1-2) on HaloLink resin (Mus musculus, UniProt Q62108 61-249)
Chain of HaloTag-PDZ1+PDZ2 fusion protein (PSD-95 PDZ1-2) on HaloLink resin (Q62108 61-249): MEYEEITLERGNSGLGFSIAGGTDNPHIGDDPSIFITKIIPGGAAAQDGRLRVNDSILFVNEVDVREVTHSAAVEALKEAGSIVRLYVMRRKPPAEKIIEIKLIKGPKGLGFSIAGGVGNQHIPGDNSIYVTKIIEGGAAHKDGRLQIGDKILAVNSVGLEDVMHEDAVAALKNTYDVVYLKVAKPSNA

Measured: binding result

Chain of MBP-GST fusion protein containing an internal PDZ2 Domain Tag (Q62108 155-249): as the sequence (Q62108 155-249) above
Chain of PDZ3 Domain-HaloTag fusion protein (PSD-95 PDZ3) on HaloLink resin (Q62108 302-402): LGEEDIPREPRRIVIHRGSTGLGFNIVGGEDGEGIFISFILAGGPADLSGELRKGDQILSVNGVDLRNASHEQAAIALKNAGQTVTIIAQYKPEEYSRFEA

YKQTSV [YKQTSV peptide]
binds: [1]

SIESDV [SIESDV peptide (free GluN2B Peptide Ligand)]
not listed: [1]
binds: all other assays above
